In paper PMC9612522:

Molecular target: His-Pak4cat (UniProt O96013)
Chain of UniProt O96013 (O96013 286-591): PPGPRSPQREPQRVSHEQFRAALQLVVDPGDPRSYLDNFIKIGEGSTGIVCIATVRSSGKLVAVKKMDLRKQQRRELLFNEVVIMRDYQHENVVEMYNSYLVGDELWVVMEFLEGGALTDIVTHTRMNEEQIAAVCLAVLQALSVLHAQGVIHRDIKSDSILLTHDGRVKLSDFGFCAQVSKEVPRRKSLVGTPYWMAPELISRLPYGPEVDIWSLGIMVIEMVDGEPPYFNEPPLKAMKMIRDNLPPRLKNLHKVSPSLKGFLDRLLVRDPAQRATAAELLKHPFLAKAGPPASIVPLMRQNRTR

Chain of GST-Inka1-iBox (Q96EL1 166-203): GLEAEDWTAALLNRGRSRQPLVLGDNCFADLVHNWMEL
Chain of GST-Inka2-iBox (Q9NTI7 133-193): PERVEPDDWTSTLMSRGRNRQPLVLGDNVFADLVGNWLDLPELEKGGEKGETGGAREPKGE

IC50 of inhibition of His-Pak4cat kinase activity (in vitro kinase assay, ADP-Glo luminescence, AKT1 peptide substrate; dose-response with 0.75 ng-400 ng of GST-Inka1-iBox) [µM]	IC50 of inhibition of His-Pak4cat kinase activity (in vitro kinase assay, ADP-Glo luminescence, AKT1 peptide substrate; dose-response with 0.75 ng-400 ng of GST-Inka2-iBox) [µM]	Substance
0.0677	–	GST-Inka1-iBox (from UniProt Q96EL1 166-203) (domain or fragment)
–	0.0603	GST-Inka2-iBox (from UniProt Q9NTI7 133-193) (domain or fragment)
